Where a chain is given by its changes, count along the chain named. Names and notes keep the numbering of the source. “Also recorded” adds a separate entry of the source.
Legend:
cells depleted for EYA4 = test: MTT cell cytotoxicity assay, genotoxic stress (ATR inhibitor or hydroxyurea); type: cell-based; details: EYA4-depleted versus control cells, FIG. 21B, FIG. 22A
Method: For genotoxic stress, cells were seeded into 96-well plates (200 cells/well). Twenty-four hours after seeding, increasing concentrations of ATR inhibitor (AZ20) or hydroxyurea were added to the culture (24 h pulse). Cell cytotoxicity was measured after 96 h following manufacturer's protocol (Abcam ab211091). Briefly, 50 μL serum-free media (no phenol red) and 50 μL MTT reagent was added to each well and incubated at 37° C. for 3 h. MTT media was replaced with 150 μL of MTT solvent and incubated with agitation for 15 mn. Absorbance was measured at 590 nm. The cell viability was calculated using the following equation: […]

TKCC02.1 cells = test: Survival of TKCC02.1 cells, alone and in combination; type: cell-based; details: TKCC02.1, at doses tested, FIG. 35, FIG. 36
Method: Similar doses of EYA4i were tested alone and in combination with PARPi (olaparib) or Camptothecin (CPT).

[1] = system: HeLa cells (empty vector or knocked down for EYA4); test: MTT cell cytotoxicity assay with PARP inhibitor; type: cell-based; details: EYA4-depleted versus control cells, FIG. 5D
Method: HeLa cells (empty vector or knocked down for EYA4) were seeded in 96-well plates. After 24 hrs, increasing concentrations of PARP inhibitor (olaparib) were added. Cell cytotoxicity was measured following manufacturer's protocol (Abcam ab211091). Briefly, 50 μL serum-free media and 50 μL MTT reagent was added to each well and incubated at 37° C. for 3 hrs. MTT media was replaced with 150 μL of MTT solvent and incubated with agitation for 15 min. Absorbance was measured at 590 nm.

RAD51 Y54F,Y315F [2] = target: T1, RAD51 Y54F,Y315F (UniProt Q06609 Q06609:1-339, Y54F,Y315F); test: MST; +/- 7.3 nM, Hill 3.31; details: tags: pET11 construct, E. coli BLR(DE3)pLysS; label: Cy5
RAD51 WT [3] = target: T2, RAD51 WT (UniProt Q06609 Q06609:1-339); test: MST; +/- 18.1 nM, Hill 2.66; details: tags: pET11 construct, E. coli BLR(DE3)pLysS; label: Cy5
RAD51 WT [4] = target: T2, RAD51 WT; test: MST; +/- 162.5 nM, Hill 2.30; details: tags: pET11 construct, E. coli BLR(DE3)pLysS; label: Cy5 on P1
RAD51 Y54D,Y315D = RAD51 Y54D,Y315D (UniProt Q06609 Q06609:1-339, Y54D,Y315D); test: MST; +/- 0.4951 uM, Hill 2.67; details: tags: pET11 construct, E. coli BLR(DE3)pLysS; label: Cy5 on P1
RAD51 Y54F,Y315F [5] = target: T1, RAD51 Y54F,Y315F; test: MST; +/- 11.7 nM, Hill 7.07; details: tags: pET11 construct, E. coli BLR(DE3)pLysS; label: Cy5 on P1
cy5-labeled ssDNA = test: Microscale thermophoresis (MST) DNA binding, ssDNA
Method: (§1) A total of 12 concentrations of ligand proteins (e.g., EYA (1-365)) were serially diluted by 1:1 using MST buffer from 5 uM to 2.4 nM, 10 ul of each dose of ligand protein was mixed with 10 ul of cy5-labeled dsDNA/ssDNA supernatant. The mixture of EYA and DNA was loaded into premium capillaries for MST assay with parameters set up at auto-detected excitation power and medium MST power. Binding affinity was analyzed by MO. Affinity Analysis software (version 2.1.3, NanoTemper Technologies) using the signal from an MST-on time of 20 s. Three individual experiments were merged to generate standard deviation.
(§2) Cy5-labeled oligo P1 (T. T. Paull Curr Opin Genet Dev 71, 55-62 (2021)). from IDT ([…]-[…]; SEQ ID NO:1) was used as the ssDNA substrate. dsDNA was generated by annealing Cy5-labeled oligo P1 with its exact complement P2 […]-AAATAAGTAAAAG […] (SEQ ID NO:2). The annealed product was purified by SDS-PAGE then concentrated and quantified. For the long system assays, substrates were sourced from NEB. The ssDNA is the ϕX174 virion DNA and the dsDNA its replicative form ϕX174 RF I DNA.

cy5-labeled dsDNA = test: Microscale thermophoresis (MST) DNA binding, dsDNA
Method: as §1, §2

[6] = EYA4 constructs binding ssDNA, Table 4
[7] = EYA4 constructs binding dsDNA, Table 4
[8] = RAD51 proteins binding ssDNA, Table 5
[9] = RAD51 proteins binding dsDNA, Table 5

T2 sequence (Q06609 whole entry, one chain of several): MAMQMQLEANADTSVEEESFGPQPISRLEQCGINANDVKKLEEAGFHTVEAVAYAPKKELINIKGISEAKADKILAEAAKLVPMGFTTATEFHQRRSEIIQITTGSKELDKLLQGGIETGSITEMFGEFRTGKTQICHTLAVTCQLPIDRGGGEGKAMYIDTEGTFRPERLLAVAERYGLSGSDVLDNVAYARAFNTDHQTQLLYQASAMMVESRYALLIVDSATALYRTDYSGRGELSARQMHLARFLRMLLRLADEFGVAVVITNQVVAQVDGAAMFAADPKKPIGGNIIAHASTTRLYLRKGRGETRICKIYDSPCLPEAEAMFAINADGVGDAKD

C[C@@H]1COCCN1c1cc(C2(S(C)(=O)=O)CC2)nc(-c2cccc3[nH]ccc23)n1 [AZ20] was tested, and the “sensitivity of cells depleted for EYA4 (MTT)” value (cells depleted for EYA4) was “sensitive”.

In the case of CC[C@@]1(O)C(=O)OCc2c1cc1n(c2=O)Cc2cc3ccccc3nc2-1 [CPT], the “lethality / efficacy as single agent” value (TKCC02.1 cells) is reported as “not lethal; also recorded: neither PARPi nor CPT are lethal”.

O=C(c1cc(Cc2n[nH]c(=O)c3ccccc23)ccc1F)N1CCN(C(=O)C2CC2)CC1 [Olaparib] was tested, and the “lethality / efficacy as single agent” value (TKCC02.1 cells; listed as PARPi) was “not lethal; also recorded: neither PARPi nor CPT are lethal” and the “sensitivity of cells depleted for EYA4 (survival, MTT)” value [1] was “sensitive”.

For NC(=O)NO [hydroxyurea], the “sensitivity of cells depleted for EYA4 (MTT)” value (cells depleted for EYA4) was “sensitive”.

B1: oligo P1 ssDNA (ssDNA)
DNA: TTATATCCTTTACTTTGAATTCTATGTTTAACCTTTTACTTATTTTGTATTAGCCGGATCCTTATTTCAATTATGTTCAT
With B1 the EC50 (RAD51 Y54F,Y315F [2]) was 427 nM and the EC50 (RAD51 WT [3]) was 515 nM.

B2: P1/P2 dsDNA (dsDNA)
DNA 1: B1 DNA
DNA 2: ATGAACATAATTGAAATAAGGATCCGGCTAATACAAAATAAGTAAAAGGTTAAACATAGAATTCAAAGTAAAGGATATAA
B2 was tested, and the EC50 (RAD51 WT [4]) was 1160 nM, the EC50 (RAD51 Y54D,Y315D) was 3070 nM and the EC50 (RAD51 Y54F,Y315F [5]) was 561 nM.

B3: 1-365: N-terminally m-cherry-tagged EYA4 (aa 1-365), purified (protein, UniProt O95677 1-365, looked up, fragment)
chain: MEDSQDLNEQSVKKTCTESDVSQSQNSRSMEMQDLASPHTLVGGGDTPGSSKLEKSNLSSTSVTTNGTGGENMTVLNTADWLLSCNTPSSATMSLLAVKTEPLNSSETTATTGDGALDTFTGSVITSSGYSPRSAHQYSPQLYPSKPYPHILSTPAAQTMSAYAGQTQYSGMQQPAVYTAYSQTGQPYSLPTYDLGVMLPAIKTESGLSQTQSPLQSGCLSYSPGFSTPQPGQTPYSYQMPGSSFAPSSTIYANNSVSNSTNFSGSQQDYPSYTAFGQNQYAQYYSASTYGAYMTSNNTADGTPSSTSTYQLQESLPGLTNQPGEFDTMQSPSTPIKDLDERTCRSSGSKSRGRGRKNNPSPPPD
modifications: N-terminal mCherry tag
notes: N-terminally m-cherry-tagged EYA4 (aa 1-365), purified
Work on B3 yielded an EC50 (cy5-labeled ssDNA; [6]) of 303 nM, a Kd (cy5-labeled ssDNA; ssDNA binding, FIG. 3C) of 303 nM and an EC50 (cy5-labeled dsDNA; [7]) of 733 nM. For the same molecule, the Kd (cy5-labeled dsDNA; dsDNA binding, FIG. 3C) was 732 nM.

B4: SQTQ: phosphomimetic EYA4 double mutant in the ATM-ATR consensus site SQTQ (S209D, T211D) (protein, UniProt O95677 1-639, looked up, variant S209D T211D)
Protein phosphatase EYA4: MEDSQDLNEQSVKKTCTESDVSQSQNSRSMEMQDLASPHTLVGGGDTPGSSKLEKSNLSSTSVTTNGTGGENMTVLNTADWLLSCNTPSSATMSLLAVKTEPLNSSETTATTGDGALDTFTGSVITSSGYSPRSAHQYSPQLYPSKPYPHILSTPAAQTMSAYAGQTQYSGMQQPAVYTAYSQTGQPYSLPTYDLGVMLPAIKTESGLDQDQSPLQSGCLSYSPGFSTPQPGQTPYSYQMPGSSFAPSSTIYANNSVSNSTNFSGSQQDYPSYTAFGQNQYAQYYSASTYGAYMTSNNTADGTPSSTSTYQLQESLPGLTNQPGEFDTMQSPSTPIKDLDERTCRSSGSKSRGRGRKNNPSPPPDSDLERVFVWDLDETIIVFHSLLTGSYAQKYGKDPPMAVTLGLRMEEMIFNLADTHLFFNDLEECDQVHIDDVSSDDNGQDLSTYSFATDGFHAAASSANLCLPTGVRGGVDWMRKLAFRYRRVKELYNTYKNNVGGLLGPAKRDAWLQLRAEIEGLTDSWLTNALKSLSIISTRSNCINVLVTTTQLIPALAKVLLYSLGGAFPIENIYSATKIGKESCFERIMQRFGRKVVYVVIGDGVEEEQAAKKHNMPFWRISSHSDLLALHQALELEYL
For B4, the EC50 (cy5-labeled ssDNA; [6]) was 515 nM, the Kd (cy5-labeled dsDNA; DNA (type not stated), FIG. 3E) was > 2000 nM and the EC50 (cy5-labeled dsDNA; [7]) was 2200 nM.

B5: WT: purified wild type RAD51 (protein, UniProt Q06609 2-339, looked up)
DNA repair protein RAD51 …: AMQMQLEANADTSVEEESFGPQPISRLEQCGINANDVKKLEEAGFHTVEAVAYAPKKELINIKGISEAKADKILAEAAKLVPMGFTTATEFHQRRSEIIQITTGSKELDKLLQGGIETGSITEMFGEFRTGKTQICHTLAVTCQLPIDRGGGEGKAMYIDTEGTFRPERLLAVAERYGLSGSDVLDNVAYARAFNTDHQTQLLYQASAMMVESRYALLIVDSATALYRTDYSGRGELSARQMHLARFLRMLLRLADEFGVAVVITNQVVAQVDGAAMFAADPKKPIGGNIIAHASTTRLYLRKGRGETRICKIYDSPCLPEAEAMFAINADGVGDAKD
B5 was tested, and the EC50 (cy5-labeled ssDNA; [8]) was 515 nM and the EC50 (cy5-labeled dsDNA; [9]) was 1160 nM.

B6: YF, YF: double-mutant RAD51 (Y54F, Y315F) that cannot be phosphorylated (protein, UniProt Q06609 2-339, looked up, variant Y54F Y315F)
DNA repair protein RAD51 …: B5 DNA repair protein RAD51 … with Y53F, Y314F
In the case of B6, the EC50 (cy5-labeled ssDNA; [8]) is reported as 427 nM and the EC50 (cy5-labeled dsDNA; [9]) is reported as 561 nM.

B7: YD, YD: double phospho-mimetic RAD51 (Y54D, Y315D) (protein, UniProt Q06609 2-339, looked up, variant Y54D Y315D)
DNA repair protein RAD51 …: B5 DNA repair protein RAD51 … with Y53D, Y314D
In the case of B7, the EC50 (cy5-labeled ssDNA; [8]) is reported as > 5000 nM and the EC50 (cy5-labeled dsDNA; [9]) is reported as 3070 nM.

From patent US20250009750A1, “METHODS OF TREATING DISORDERS ASSOCIATED WITH EYA OVEREXPRESSION AND MUTATIONS” (The Board of Regents of the University of Texas System, priority 2023, published 2025)
